The results in this text go back to patent US20220324971A1 (AKESO BIOPHARMA, published 2022).

Test [1] concerns the target T1, human CD47 IgV TEV-His (human, UniProt Q08722 19-141).
T1 construct: range 19-141; Recombinant fusion protein synthesized by Akeso; residue numbers count on NP_942088.1; not shown: his tag
Description: Fortebio BLI, antibody amine-coupled to AR2G sensor, antigen 3.125-100 nM. Background: Biolayer interferometry detects binding as a change in optical thickness at a sensor tip.

In test [2] the target is T2, CD47 on the cell membrane surface of human cells (normal human RBCs, Raji, LOVO) (human, UniProt Q08722 19-323).
T2 construct: whole, on cells; also called CD47 on the cell membrane surface of normal human RBCs; CD47 on the cell membrane surface of Raji cells
Description: flow cytometry on human RBCs.
Description: Fresh blood was mixed well with blood buffer (blood dilution ratio of 1:3 after concentration). […] The tubes were each centrifuged at 1550 rpm for 30 min after balancing. The PBMCs in the middle buffy coat layer were pipetted. The blood buffer was added in a volume ratio of cells to blood buffer of 1:4. The resulting mixture was well mixed and centrifuged at 950 rpm for 15 min, and the supernatant was discarded. 20 mL of the blood buffer was added to resuspend PBMCs. The resulting suspension was centrifuged, and the supernatant was discarded. Centrifugation was performed, followed by two washings. […] Centrifugation was performed and the supernatant was discarded. […] 500 μL of 1% PBSA was added to each tube, followed by centrifugation at 5600 rpm for 5 min. The supernatant was discarded. 100 μL of the antibody with a corresponding concentration was added (final concentrations: 300, 100, 10, 1, 0.1, 0.01, 0.001 nM) to each tube, and a Blank (PBSA+ cells) and an isotype control were designed, followed by incubation on ice for 1 h. […] 200 μL of 1% washing buffer was added to each tube to resuspend the cells, and fluorescence signals were detected with FITC channel on a flow cytometer. The results were analyzed using Flowing software, and curve fittings were performed separately using MFI and sample concentration on GraphPad prism 5 to calculate EC50.

Test [3] addresses T2, CD47 on the cell membrane surface of …. Description: flow cytometry on Raji cells. Background: Flow cytometry measures light scatter and fluorescence of single cells or particles in a stream.
The target is the same in test [4]. Description: flow cytometry on LOVO cells.
Description: The cell pellets were resuspended in 500 μL of 1% PBSA and counted, and the viability was determined. The cells were transferred to 1.5 mL tubes according to 3.0×10⁵ cells/500 μL/tube, and centrifuged at 5600 rpm for 5 min, and the supernatant was discarded. […] Then 500 μL of 1% PBSA was added, followed by centrifugation at 5600 rpm for 5 min, and the supernatant was discarded. 100 μL of FITC goat anti-human IgG (1:500) was added to each tube, and the mixtures were well mixed and incubated on ice for 30 min in the dark. 500 μL of 1% PBSA was added, followed by centrifugation at 5600 rpm for 5 min, and the supernatant was discarded. 200 μL of 1% PBSA was added to each tube to resuspend the cells, and the suspensions were transferred to flow cytometry tubes and detected by a flow cytometer BD FACSCalibur. The results were analyzed using Flowing software, and curve fittings were performed separately using MFI and sample concentration on GraphPad prism 5 to calculate EC50.
The target is the same in test [5]. As to the kind of experiment: flow cytometry competition vs SIRPα-ECD-mFc on LOVO cells.
The target is the same in test [6]. Description: flow cytometry competition vs SIRPα-ECD-mFc 20 nM on Raji cells.
Description: Raji cells in the log phase were routinely collected, centrifuged and washed. The cell pellets were resuspended in 1% PBSA and counted, and the viability was determined. The cell concentration was adjusted with 1% PBSA into a suitable range, and the cells were transferred in groups into 1.5 mL tubes at 500 μL per tube, for a total of 0.3 million cells. The cells were centrifuged at 5600 rpm for 5 min, and the supernatant was discarded. The antibody serially diluted was added (final concentrations in descending order: 1, 0.3, 0.1, 0.01, 0.001, 0.0001 nM), and a blank control (100 μL of 1% PBSA+ cells) and an isotype control (human hIgG) were set up, followed by incubation on ice for 30 min. […] 1% PBSA was added, followed by centrifugation at 5600 rpm for 5 min, and the supernatant was discarded. 100 μL of FITC goat anti-mouse IgG (1:500 dilution) was added to each tube, followed by incubation on ice for 40 min in the dark. 500 μL of 1% PBSA was added, followed by centrifugation at 5600 rpm for 5 min, and the supernatant was discarded. 200 μL of 1% PBSA was added to resuspend the cell pellets. Fluorescence signals were detected with FITC channel on a flow cytometer.
The target of test [7] is T1, human CD47 IgV TEV-His. As to the kind of experiment: Biacore SPR, CD47 IgV-TEV-His amine-coupled to chip, antibody 0.78-12.5 nM, 1:1 model. For orientation: Surface plasmon resonance follows binding to a sensor surface in real time, without labels.
Description: The buffer solution was PBST. […] The antibody and human CD47 were subjected to dissociation for 300 s. The chip was regenerated with 3 M MgCl₂ for 30 s at a flow rate of 30 μL/min. The data were analyzed by 1:1 model fitting to obtain affinity constants. Data were acquired using Biacore Control 2.0 software and analyzed using Biacore T200 Evaluation 2.0 software.
The target of test [8] is T1, human CD47 IgV TEV-His. As to the kind of experiment: competitive ELISA vs SIRPα ECD-hFc-Biotin 0.1 ug/mL on coated CD47 IgV TEV-His (blocking EC50).
Description: (§1) Experimental procedures: A microplate was coated with 2 μg/mL human CD47 IgV TEV-His at 50 μL per well and incubated at 4° C. for 16 h. The microplate was washed once and tapped dry, blocked with 1% BSA (in PBS) at 300 μL per well, incubated at 37° C. for 2 h, and washed three times and tapped dry. […] Two duplicate wells were set for the above concentrations, with a final volume of 50 μL per well, and the plate was incubated for 10 min. […] The microplate was washed three times and tapped dry. 50 μL of SA-HRP (KPL, 14-30-00) working solution was added to each well, and the microplate was incubated at 37° C. for 30 min. The microplate was washed four times and tapped dry. 50 μL of TMB chromogenic solution was added to each well for color developing for 5 min at room temperature in the dark, and then the color development was terminated by adding 50 μL of stop solution to each well. Then the microplate was put into a microplate reader immediately, and the OD value of each well in the microplate was read at 450 nm. The data were analyzed and processed by SoftMax Pro 6.2.1.
Test [9] concerns the target T2, CD47 on the cell membrane surface of …. As to the kind of experiment: flow cytometry on Raji cells. The source holds these as a separate data set.
Description: Raji cells in the log phase were collected, centrifuged, and washed. The cell pellets were resuspended in 1% PBSA and counted, and the viability was determined. The cells were transferred to 1.5 mL tubes according to 3.0×10⁵ cells/500 μL/tube, and centrifuged at 5600 rpm for 5 min, and the supernatant was discarded. 100 μL of the corresponding antibody serially diluted was added to each tube according to the experimental design, and a blank group (PBSA+ cells) and an isotype control (hIgG) group were designed, followed by incubation on ice for 1 h. Then 1% PBSA was added, followed by centrifugation at 5600 rpm for 5 min, and the supernatant was discarded. 100 μL of FITC goat anti-human IgG (1:500) was added to each tube, and the mixtures were well mixed and incubated on ice for 30 min in the dark. 500 μL of 1% PBSA was added, followed by centrifugation at 5600 rpm for 5 min, and the supernatant was discarded. 1% PBSA was added to each tube to resuspend the cells, and fluorescence signals were detected with FITC channel on a flow cytometer. Curve fittings were performed separately using MFI and sample concentration to calculate EC50.
Test [10] concerns the target T1, human CD47 IgV TEV-His. Description: indirect ELISA, coated CD47 IgV TEV-His 2 ug/mL.
Description: Experimental procedures: A microplate was coated with 2 μg/mL human CD47 IgV TEV-His and incubated at 4° C. for 12 h. The antigen-coated microplate was rinsed 3 times with PBS, and then blocked with 1% BSA in PBS for 2 h. The microplate was rinsed 3 times with PBS. The antibody serially diluted with PBST solution was added into the wells of the microplate, the dilution gradients for the antibody detailed in Table 2. The microplate containing the test antibody was incubated at 37° C. for 30 min, and then washed 3 times with PBST. […] The microplate was washed 3 times with PBST. […] Then the microplate was put into a microplate reader immediately, and the OD value of each well in the microplate was read at 450 nm. The data were analyzed by SoftMax Pro 6.2.1.
The target in test [11] is T2, CD47 on the cell membrane surface of …. Description: flow cytometry competition vs SIRPα-mFc 20 nM on LOVO cells.
Description: The cell pellets were resuspended in 1% PBSA and counted, and the viability was determined. The cell concentration was adjusted with 1% PBSA into a suitable range, and the cells were transferred in groups into 1.5 mL tubes at 500 μL per tube, for a total of 0.3 million cells. The cells were centrifuged at 5600 rpm for 5 min, and the supernatant was discarded. The antibody serially diluted was added (final concentrations in descending order: 300, 100, 10, 1, 0.3, 0.1, 0.01, 0.001, 0.0001 nM), and a blank control (100 μL of 1% PBSA+ cells) and an isotype control (human hIgG) were set up, followed by incubation on ice for 30 min. […] 1% PBSA was added, followed by centrifugation at 5600 rpm for 5 min, and the supernatant was discarded. 100 μL of FITC goat anti-mouse IgG (1:500 dilution) was added to each tube, followed by incubation on ice for 40 min in the dark. 1% PBSA was added, followed by centrifugation at 5600 rpm for 5 min, and the supernatant was discarded. 200 μL of 1% PBSA was added to resuspend the cell pellets, and the suspensions were transferred to flow cytometry tubes. Fluorescence signals were detected with FITC channel on a flow cytometer. Curve fittings were performed separately using MFI and sample concentration to calculate EC50.
Test [12] has as its target T1, human CD47 IgV TEV-His. Description: competitive ELISA vs SIRPα ECD-hFc-Biotin 0.1 ug/mL on coated CD47 IgV TEV-His (blocking EC50). The source holds these as a separate data set.
Description: as §1

B1: murine antibody 6F7 (antibody, V domains shown)
VH: QVQLQQPGAELVRPGASVKLSCKASGYTFTSYWMNWVKQRPGQGLEWIGMIDPSDSETHNNQMFKDKATLTVDKSSNTAYMHLSSLTSEDSAVYHCARLYRWYFDVWGAGTTVTVSS
VL: NIVMTQSPKSMSMSLGERVTLSCKASEIVGTYVSWFQQKPHQSPKLLIYGASNRYTGVPDRFTGSGSATDFTLTISNVQAEDLADYHCGQSYNFPYTFGGGTKLEIK
notes: Murine hybridoma antibody purified on protein A; also called monoclonal antibody secreted by hybridoma cell line LT012 (CD47-6F7)
Consider B1, for which, in the test with human CD47 IgV TEV-His [1], the dissociation constant Kd (in general, the free concentration of one partner at which half of the binding sites on the other are occupied at equilibrium, for simple one-to-one binding) is 0.652 nM; the koff (usually a measure of how fast the partners let go of each other) stood at 0.000256 s⁻¹; the on-rate constant (kon) (in general, a measure of how fast the partners come together) amounted to 393000 M⁻¹ s⁻¹.

B2: 6F7 H1L1(hG4) (antibody, human IgG4, kappa)
heavy: not shown
light: NIVMTQSPATMSMSPGERVTLSCRASEIVGTYVSWFQQKPGQAPRLLIYGASNRYTGVPARFSGSGSGTDFTLTISSVQPEDLADYHCGQSYNFPYTFGGGTKLEIKRTVAAPSVFIFPPSDEQLKSGTASVVCLLNNFYPREAKVQWKVDNALQSGNSQESVTEQDSKDSTYSLSSTLTLSKADYEKHKVYACEVTHQGLSSPVTKSFNRGEC
notes: Humanized 6F7
In the case of B2, the EC50 – broadly, the concentration needed to bring the measured effect to its halfway point – is 0.6 nM in test [2]; 0.32 nM in [3]; 0.02 nM in test [4]; 0.1 nM in [5]; 0.017 nM in test [6]; 0.194 nM with human CD47 IgV TEV-His [8]. The equilibrium dissociation constant (Kd) with human CD47 IgV TEV-His [7] came out at 0.152 nM.

B3: 6F7 H1L1(G1M) (antibody, human IgG1, kappa, L234A L235A)
heavy: not shown
light: NIVMTQSPATMSMSPGERVTLSCRASEIVGTYVSWFQQKPGQAPRLLIYGASNRYTGVPARFSGSGSGTDFTLTISSVQPEDLADYHCGQSYNFPYTFGGGTKLEIKRTVAAPSVFIFPPSDEQLKSGTASVVCLLNNFYPREAKVQWKVDNALQSGNSQESVTEQDSKDSTYSLSSTLTLSKADYEKHKVYACEVTHQGLSSPVTKSFNRGEC
notes: Humanized 6F7; also called 6F7 H1L1(hG1DM)
As for B3, the 50% effective concentration (EC50) in test [9] amounted to 0.013 nM; with human CD47 IgV TEV-His [10] it was 0.037 nM; in test [11] it was 0.16 nM; with human CD47 IgV TEV-His [12], 0.274 nM.
